For 140 substances, amyloid nucleation score results are on record in the supplement of paper PMC12042874.

The nature of this data set: amyloid nucleation score (Sup35N fusion, yeast selection) (log enrichment); library NNK2; higher = more nucleation; inactive = no reads after selection. In outline: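 Peptides of 20 random codons fused to Sup35N were expressed in psi-negative yeast, induced 24 hours with 100 μM copper sulfate, then grown 7 days at 30°C on medium lacking adenine and uracil. Input and output plasmid inserts were Illumina-sequenced. Nucleation score is the DiMSum log enrichment of output over input reads, centred on the mode score of non-aggregating sequences, excluding sequences with under 100 input reads. Random libraries had three technical output replicates.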

± gives the uncertainty stated by the source.

Substance YSRKYSSAKVSMGDVCHNYM gave an amyloid nucleation score of -1.19 ± 0.76.
FNSWLV: the amyloid nucleation score is -0.86 ± 1.1.
The substance YQYDNPVLDKT yielded an amyloid nucleation score of -0.178 ± 0.55.
The value for AASWHPAYCIYGPGGRDKVG was 2.49 ± 0.12; that for NTWDMLYGIWFSSLLQALLN was “inactive”; that for SSGGMVKHYPKIQLSSVWVF was 0.238 ± 0.64.
The substance VTTSTLMYWRGRTGALLAPS had an amyloid nucleation score of 1.84 ± 0.22.
To GLRCRYPSRPVTCGLLWGCG belongs 0.089 ± 0.37; to VNSSFLLGFCLRIMNHV, “inactive”; to RGFCN, -1 ± 1.1.
For ETGSIVVKMLPSRWGSLRLV, the amyloid nucleation score was 3.19 ± 0.11.
The value for REVIRGLCMYKARWIRVGVG was 0.947 ± 0.21; that for GLREKDN was -0.036 ± 0.32.
To IFNCLFDNGKDVYFGILIDF belongs 2.85 ± 0.081; to YINVALWIMSFSGSVWGKEP, 4.55 ± 0.064; to WVIFSLVKWCMFSNDVVWVA, -0.944 ± 0.34.
To WLRVTRLEIWQGKFSTNELT belongs -0.755 ± 1.1.
As for GGNFLVCYVFDDSCHWIMMY, the amyloid nucleation score amounted to 4.56 ± 0.086.
Turning to VVTNCAALVNWRFFYLCNSY, the amyloid nucleation score amounted to 3.93 ± 0.054.
Turning to CMFVILMYLHQGRKLNAVPS, the amyloid nucleation score was -1.02 ± 1.1.
The value for FSYRYIEDWCTNVGDLDVKL was -0.073 ± 0.26; that for IFGSWSSIMCLTKFKCSLGG was 2.8 ± 0.081; that for EYSFIHLEIKNTVLKRVLTP was 1.66 ± 0.32.
The value for MFAGLIVLCLVWVYRRC was 4.89 ± 0.061.
To VHRSSLASNGSLES belongs -0.398 ± 0.45.
GKIKIEGNDLIGGLQGRLRP: the amyloid nucleation score entry is “inactive”.
To LVACMASDITNNMSRLYHLI belongs -1.79 ± 1.1; to SAFVVQFVK, -0.31 ± 0.42.
The value for LIADSCFFIQGDHPMLSELY was 0.888 ± 0.32.
The value for HTGLSVGKFKVRHGNVHRVF was -0.181 ± 0.34; that for WVCNFVMIRLGIFEF was 1.78 ± 0.14.
Substance YFSKMS registered an amyloid nucleation score of -0.817 ± 0.43.
To SDAVFFLLSNGNRPPRAAMS belongs 0.155 ± 0.29; to LFNLACLRGRKTVWITDKLT, 0.012 ± 0.5; to YALWIVMLVP, -0.104 ± 0.49.
Substance ALPITQNCC displayed an amyloid nucleation score of -1.07 ± 0.44.
The value for SNRWPGTFLASETNVLLE was -0.224 ± 0.32.
The value for PARLTNCGDPSY was -0.997 ± 0.3; that for RAMANHHDDWLVPGFQ was -0.258 ± 0.45.
In the case of TPILFVT, the amyloid nucleation score is -0.746 ± 0.56.
The value for GKLAARTAINSLFCKLGRRP was -0.066 ± 0.63.
To KIAWLTLHLTMWFST belongs 0.329 ± 0.41; to KWVRLNKFNLPPHYSPPQTM, 1.42 ± 0.24.
To LVFRLDFDYVRLCPNLANTL belongs 0.192 ± 1; to FINGGSCYAFFCKYGYRMHR, -0.109 ± 0.37.
Regarding SGIVG, the amyloid nucleation score turned out to be 0.791 ± 0.57.
VAYVKACRTSGVHQLSTDHV gave an amyloid nucleation score of 1.67 ± 0.34.
For the substance IRVYRGGLFNSLKKENVGAC, the amyloid nucleation score result was “inactive”.
The value for NDSNIRINNFFGNFTFGREL was 7.485 ± 0.041; that for LTAWIC was 0.285 ± 1.
The value for TKEHYYR was 0.048 ± 0.5.
The value for YCLELIGSLTHALPVKSLLV was “inactive”.
As for QNQVGIRGILHHMMNSLRTQ, the amyloid nucleation score turned out to be 3.87 ± 0.055.
To QKNLEGLPEVEGNRRRCVVR belongs 0.033 ± 0.52; to YNWGNASSSGVKPEPGGQPT, 0.696 ± 0.27; to SFDLWLCTRRWLGGAWILL, -0.029 ± 0.65.
The value for NGHFCWPFFMARHMELREE was -0.013 ± 0.56; that for NLKDYIAFHNMSTAV was 2.22 ± 0.1.
To GLGALVGVTLYRRTQQNMWG belongs 6.313 ± 0.056.
In the case of RLRQEYGLLLRRGKSVP, the amyloid nucleation score was found to be 0.252 ± 0.35.
To SPSEYLLVAYMSHLTENETV belongs -0.064 ± 0.45; to MMARFCVAFQHVIESNLGGS, -1.4 ± 0.44; to RCVKNKLWTYMGGNISYTSS, 2.14 ± 0.1.
To LCNKVL belongs 0.27 ± 0.27; to KRVSASDISSLYADVRIKE, -0.852 ± 0.76.
INIHIFGWLIGLRGCM: the amyloid nucleation score was -0.504 ± 1.1.
To RVEGFRFYFEVRLGSVSRKL belongs -0.42 ± 0.76; to NKYKLNLYMRVIGDQNNPVN, -0.249 ± 1; to SRSFASPRYELMLATRTHEK, 0.966 ± 0.57.
The value for MYLVRIR was 0.316 ± 0.42; that for CSITRLGSVHYLSRYIFV was 3.74 ± 0.083.
To HSFLSGIKWLSSDLGDSVGY belongs -1.29 ± 0.62; to ILYFCRVLITVCMIVDMWGE, 0.333 ± 0.64; to PCYGYQR, -0.024 ± 0.65.
Regarding KYDVEGMQVSRNFY, the amyloid nucleation score was -0.424 ± 0.79.
The value for GLSIGYSKWETALGITLSNP was -0.864 ± 0.78; that for WVQLWESASFGNRLVGNMSL was -0.352 ± 1.
The substance YVRFEVLRWLLYRYTMVSQD registered an amyloid nucleation score of 0.661 ± 0.49.
In turn, AFTWLY came in with an amyloid nucleation score of 0.942 ± 0.26.
In turn, PPVVVSTSIWSRLCSYV displayed an amyloid nucleation score of 0.151 ± 0.35.
To VYLKIAGTVIDRFTAHVLLM belongs -1.43 ± 0.75; to LTYLTWFLSMDQGMLNWLHV, 0.973 ± 0.35.
To VYIWSCCVKSFESSTFDDDN belongs 7.972 ± 0.074; to AEDMSQARA, 1.15 ± 0.15; to NLRRKH, 0.294 ± 0.8.
To CYRDMALGGCNVNVQLFVEA belongs -0.049 ± 0.54.
In the case of IEGFRNDFLYVKISVGGAVV, the amyloid nucleation score entry was “inactive”.
To YNSLVRMRTRYIGR belongs 0.025 ± 0.46; to QFLTLCSKSNVRTCYSHSCN, 2.75 ± 0.19; to SYGDRLALQR, 0.546 ± 0.8.
The value for SGVFAFTKLLNTIEGDFCHR was -0.721 ± 0.64; that for YFDTYLMTSRGCSIFMAQFR was 1.67 ± 0.28; that for STLWVAKGH was -0.064 ± 1.1.
The value for LSMTEWVFSKGNRALAVYYM was -1.39 ± 0.61; that for RHMLYVGMSHNPRLGPSSLG was 0.511 ± 0.38; that for INNDTVMVVHRRIHLLYYLM was “inactive”.
For ISTSPMLACVASVRRSLIRT, the amyloid nucleation score was determined as 0.098 ± 0.74.
NERRT displayed an amyloid nucleation score of 0.995 ± 0.53.
The value for MLLLVNSRLWLASIPIKYRA was -0.332 ± 0.44; that for RGCSESWLSW was 0.079 ± 0.34.
To SNCRTSFIQMVVYDCFGSFF belongs 4.74 ± 0.09.
To FMGRMLVIHL belongs 0.277 ± 0.41; to QTVQVRPVRYGSQSFRNFGW, -0.109 ± 0.49.
The substance LTVFTPR returned an amyloid nucleation score of -0.62 ± 0.37.
Turning to MSLPRSPAWGV, the amyloid nucleation score was found to be 0.863 ± 0.27.
To IPLLCKFCSRGSRAKIYLMD belongs 1.75 ± 0.095; to SGILREPVMIQVSVLQEQHW, 5.025 ± 0.045; to RNCHYYILVTLCNVKNVYL, 8.283 ± 0.054.
To SSRSDAIFIAICLNFIKGKM belongs 1.32 ± 0.33; to FWSGVTFSVLSYMSVSNMVP, -0.979 ± 0.55; to APWYIL, 0.225 ± 0.36.
The value for NGCYQGYKCVLRQLAFKSSG was -0.17 ± 0.5; that for YRAMESNRKRTPVKPVRCVV was 2.85 ± 0.11; that for CFNGLDLLILSTKMVSLLWY was -0.492 ± 1.1.
Regarding KTMWLLWINGLHMSSHFRSK, the amyloid nucleation score was -0.006 ± 0.22.
ISVKDCLYPQLL came in with an amyloid nucleation score of -0.492 ± 1.
The value for TSYTWDHCGGHIKSRYSGVG was “inactive”; that for DFYACTWKDSCCGHEGRSAC was 0.634 ± 0.43; that for SFINGILRFLSRRCNCIWLL was 0.14 ± 0.5.
To LSSCLHEIRDSVVVRVVVVY belongs -0.684 ± 0.5; to NTRASSKGIDMGYCQYH, 0.066 ± 0.49; to NHESYWSKSSWFWLFNGVSQ, “inactive”.
To PTCMLCA belongs 0.868 ± 0.44; to DSLMQVNWN, 1.01 ± 0.36; to NVFVLFVHRVVGQELAELLG, 4.58 ± 0.065.
Substance FRTSYRSCCVNTYREVVVYA gave an amyloid nucleation score of -0.501 ± 0.45.
The value for LDLLKNCCTASMPGSLVVGR was 0.369 ± 0.65; that for RFKSIWAVNVIWNDYVADNG was 7.835 ± 0.077; that for RLSSILYYVNHFS was -0.045 ± 0.41.
The value for IFSIKPIYLDLNQRVNSIAE was “inactive”.
VNSEISDYLHDGDGSRVRSI returned an amyloid nucleation score of -0.025 ± 0.79.
In turn, ESHTGYNIPVIRSHPPYNRS returned an amyloid nucleation score of -0.869 ± 0.64.
The value for QKHAYAWLTPF was 1.54 ± 0.21.
To YPIVLRA belongs 1.01 ± 0.48; to SLFWNISPLKWSLLIGRCSV, -1.01 ± 0.78; to YNAWSSWYLGVLRPIGCCNG, 9.703 ± 0.046.
The value for WYDSIMT was -0.084 ± 0.35; that for DFTFWCEYSSSPVKKYVIDC was 0.736 ± 0.18; that for DFVIESLNMYYWCTRGVVKK was “inactive”.
Substance LMAKLPAINEYPPF yielded an amyloid nucleation score of -0.04 ± 0.56.
